Source: US20190119407A1 (Amgen, published 2019)
Where a chain is given by its changes, count along the chain named.

Experiments:
[1] = molecular target: T1, human TL1A (human, UniProt O95150 72-251, limits assumed); assay: hybridoma screening after immunisation with recombinant human TL1A soluble protein; member named through Tables A, C and D
T1 construct: also called huTL1A; TNFSF15
T1 sequence (looked up): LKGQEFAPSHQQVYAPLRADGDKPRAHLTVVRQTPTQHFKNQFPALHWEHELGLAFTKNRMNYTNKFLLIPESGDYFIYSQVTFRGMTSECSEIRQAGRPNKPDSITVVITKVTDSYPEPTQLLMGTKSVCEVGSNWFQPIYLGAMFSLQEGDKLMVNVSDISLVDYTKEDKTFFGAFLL

[2] = molecular target: T2, human TL1A (human, UniProt O95150 72-251, limits assumed); assay: cell-based or functional assay
T2 sequence (looked up): T1 sequence (looked up)

[3] = molecular target: T3, cynomolgus TL1A (cynomolgus monkey, UniProt G7PRK8 72-251); assay: cell-based or functional assay
T3 sequence: T1 sequence (looked up) with F39L, I78V

[4] = molecular target: T2, human TL1A; assay: SPR, mAb captured on anti-human Fc chip, TL1A injected, 1:1 model
Method: (§1) On rate, off rate and equilibrium dissociation constant were calculated using 1:1 binding model on BIAevaluation software.

[5] = molecular target: T3, cynomolgus TL1A; assay: as above
Method: as §1

[6] = molecular target: T2, human TL1A; assay: SPR, Fab captured on anti-huFab chip, TL1A injected, 1:1 model
Method: as §1

B1: 23B3 VH3 (antibody, human IgG1, kappa, N297G, V domains shown)
VH: EVQLLESGGGLVQPGGSLRLSCAISGDSVSTNSVAWNWIRQAPGKGLEWVSRTYYRSKWYNDYAVSVKGRFTISPDTSKNTFYLQMNSLRAEDTAVYYCAREDGDSYYRYGMDVWGQGTTVTVSS
VL: DIQMTQSPSSLSASVGDRVTITCRSSQSVLYSSNNKNYLVWYQQKPGKVPKLLIYWASTRESGVPSRFSGSGSGTDFTLTISSLQPEDFATYYCQQYYKTPLTFGGGTKVEIKR
notes: also called 23B3 HC3; iPS 325336
binding result [1]: binds

B2: 53D3 (antibody, human IgG2, kappa, V domains shown)
VH: EVQLVESGGGLVKPGGSLRLSCAASEFTFSTYYMSWVRQAPGKGLEWVSSISSSSSFIYYADSVKGRFTISRDNAKNSLYLQMNSLRAEDTAVYYCARDRIAAPGTYYYYGMDVWGQGTTVTVSS
VL: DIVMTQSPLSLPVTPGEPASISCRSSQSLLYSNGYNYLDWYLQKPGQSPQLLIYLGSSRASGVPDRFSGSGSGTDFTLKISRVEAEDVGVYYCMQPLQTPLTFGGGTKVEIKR
notes: also called iPS 427504
binding result [1]: binds

B3: 57A8 (antibody, V domains shown)
VH: EIQLLESGGGLVQPGGSLRLSCVASGFTFSSYVMSWVRQAPGKGLEWVSVISGSGGSTYYADSVKGRFTISRDNSKTTLYLQMNSLRAEDTAVYYCAKGGTNYYYYYSGMDVWGQGTTVTVSS
VL: QSVLTQPPSVSGAPGQRVTISCTGSSSNIGAGYNVHWYQQLPGTAPKLLIYGNNNRPSGVPDRFSGSKSGTSASLAITGLQTEDEADYYCQSYDSSLSGWVFGGGTKLTVL
notes: also called iPS 427519
binding result [1]: binds

B4: 60G11 (antibody, human IgG2, lambda, V domains shown)
VL: QSVLTQPPSVSGAPGQRVTISCTGSGSNIGAGYDVHWYQQLPGTAPKLLIYGNSHRPSGIPDRFSGSKSGTSASLAITGLQAEDEADYYCQSYDSSLSGYVFGTGTKVTVLG
V domain: EVQLLESGGGLVQPGGSLRLSCAASGFTFSNYAMNWVRQAPGKGLEWVSVISGRGGSTYYADSVKGRFTISRDNSRNTLYLQMNSLRAEDTAIYYCAKDGYSSAWFFDYWGQGTLITVSS
notes: also called iPS 427493
binding result [1]: binds

B5: 58G5 (antibody, human IgG2, lambda, V domains shown)
VH: B4 V domain with N35S, E46Q, R76K, I93V, F106Y, I116V
VL: B4 VL with G26S, I60V
notes: also called iPS 427539
binding result [1]: binds

B6: 88H9 (antibody, human IgG2, kappa, V domains shown)
VH: QVQLVESGAGVVQPGRSLRLSCAASGFTFSSYGMHWVRQAPGMGLEWVAVIWFDGSNEYYADSVKGRFTISRDNSKNTLYLQMNSLRAEDTAVYYCARERWFGELLDYWGQGTLVTVSS
VL: DIQMTQSPSSLSASVGDRVTITCRASQGIRNDLGWYQEKPGKAPKRLIYAASGLQGGDPSRFSGSGSGTEFTLTISSLQPEDFATYYCLQHNSYPTWTFGQGTKVEIKR
notes: also called iPS 427485
binding result [1]: binds

B7: anti-TL1A mAb 3C6 (antibody, human IgG1, kappa, N297G, V domains shown)
VH: QVQLVESGGGVVQPGRSLRLSCAASGFTFSSYGMHWVRQAPGKGLEWVAVISYDGNNKLYTDSVKGRFTISRDDSKSTLYLQMNSLRAEDTAVYYCARDPTVTLYYYYGMDVWGQGTTVTVSS
VL: DIQMTQSPSSLSASVGDRVTITCRTSQDIRDDLGWYQQKPGKAPKRLIYDASSLQSGVPSRFSGSGSGTEFTLTISSLQPEDFATYYCLQHNSYPPTFGQGTKVEIKR
notes: also called PL-39112; iPS 284112
NF-kB IC50 nM, huTL1A (0.2 nM) [2]: 0.153 nM
NF-kB IC50 nM, cyno TL1A (2 nM) [3]: > 100 nM
Kd [4]: < 0.1 nM
koff [4]: < 5e-05 s⁻¹
Kd [5]: 2.4 nM
koff [5]: 0.0014 s⁻¹
kon [5]: 570000 M⁻¹ s⁻¹

B8: 92D3 (antibody, human IgG2, kappa, V domains shown)
VH: QVQLVQSGAEVKKPGASVQVSCKASGYTFTGYYMHWIRQAPGQGLEWLGWIIPNSGGTNYAQKFQGRVTMTRDTSISTAYMELSRLRSDDTAVYYCATGSSWEGFDYWGQGTLVTVSS
VL: DIQMTQSPSSLSASVGDRVTITCRASQSISSYLNWYQQKPGTAPKFLIYGASRLQSGVPSRFSGSGSGTDFTLTISSLQPEDFATYYCQQSDTTPITFGQGTRLEIKR
notes: also called iPS 427564
binding result [1]: binds

B9: 91F10_LC2 (antibody, human IgG2, kappa, V domains shown)
VH: B8 VH with V2G, Q19K, K23Q, G31A, I37V, L48M, I52N, Q65R, S100G
VL: B8 VL with T42K, G50A, T93S
notes: also called iPS 427572
binding result [1]: binds

B10: anti-TL1A mAb 23B3 (antibody, human IgG1, kappa, N297G, V domains shown)
VH: QVQLQQSGPGLVKPSQTLSLTCVISGDSVSTNSVAWNWIRQSPSRGLEWLGRTYYRSKWYNDYAVSVKSRITINPDTSKNQFSLQLNSVTPEDTAVYYCAREDGDSYYRYGMDVWGQGTTVTVSS
VL: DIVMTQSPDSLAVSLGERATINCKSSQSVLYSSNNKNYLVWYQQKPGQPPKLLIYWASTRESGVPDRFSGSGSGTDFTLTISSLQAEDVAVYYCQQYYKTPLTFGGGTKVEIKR
notes: also called iPS 290043
NF-kB IC50 nM, huTL1A (0.2 nM) [2]: 0.089 nM
NF-kB IC50 nM, cyno TL1A (2 nM) [3]: 0.619 nM
Kd [4]: 0.89 nM
koff [4]: 0.00042 s⁻¹
kon [4]: 470000 M⁻¹ s⁻¹
Kd [5]: 1.4 nM
koff [5]: 0.00032 s⁻¹
kon [5]: 230000 M⁻¹ s⁻¹

B11: anti-TL1A mAb 9C8 (antibody, human IgG1, kappa, N297G, V domains shown)
VH: QVQLQESGPGLVKPSETLSLTCTVSGGSISSYFWSWIRQPPGKGLEWIGYIYYSGNTKYNPSLKSRVTISIDTSKNQFSLKLSSVTAADTAVYYCARETGSYYGFDYWGQGTLVTVSS
VL: DIQMTQSPSSLSASVGDRVTITCRASQSINNYLNWYQQRPGKAPKLLIYAASSLQSGVPSRFSGSGSGTDFTLTISSLQPGDFATYYCQQSYSTPRTFGQGTKLEIKR
notes: also called PL-39116; iPS 285412
NF-kB IC50 nM, huTL1A (0.2 nM) [2]: 0.131 nM
Kd [4]: 0.34 nM

B12: anti-TL1A Fab 9C8 (Fab, V domains shown)
VH: B11 VH
VL: DIQMTQSPSSLSASVGDRVTITCRASQSINNYLNWYQQRPGKAPKLLIYAASSLQSGVPSRFSGSGSGTDFTLTISSLQPGDFATYYCQQSYSTPRTFGQGTKLEIK
notes: Fab fragment; the Fab's constant parts are not; also called 9C8 Fab; PL-39197
NF-kB IC50 nM, huTL1A (0.2 nM) [2]: 2.43 nM
Kd [6]: < 0.1 nM

B13: 76A4 (antibody, human IgG2, kappa, V domains shown)
VH: QVQLQQSGPGLVKPSQTLSLTCAISGDSVSSNSATWNWIRQSPSRGLEWLGRTYYRSKLYNDYAVSVKSRITINPDTSKNQFSLQLNSVTPEDTAVYYCAREVVAGPRWFDPWGQGTLVTVSS
VL: B11 VL with I29V, N30T, N31S, R39K, A50T, V58I, G81E, Y87F, T97S
notes: also called iPS 427529
binding result [1]: binds

B14: anti-TL1A mAb 2G11 (antibody, human IgG1, kappa, N297G, V domains shown)
VH: B11 VH with N56S, K58N, I69M, T99I, T112A
VL: B11 VL with R39K, K42I, A51T, T72S, G81E, Y87F, L104V
notes: also called iPS 285396
NF-kB IC50 nM, huTL1A (0.2 nM) [2]: 0.223 nM
Kd [4]: 1.1 nM

B15: 73C2 (antibody, human IgG2, kappa, V domains shown)
VH: B13 VH with N32S, Y55Q, L59W, Y60N, K79R
VL: B11 VL with I29F, N30S, N31S, R39K, K45E, G81E, T85S, Y87F, T97S
notes: also called iPS 427544
binding result [1]: binds

B16: anti-TL1A Fab 2G11 (Fab, V domains shown)
VH: B11 VH with N56S, K58N, I69M, T99I, T112A
VL: B12 VL with R39K, K42I, A51T, T72S, G81E, Y87F, L104V
notes: Fab fragment; the Fab's constant parts are not; also called 2G11 Fab; PL-38025
NF-kB IC50 nM, huTL1A (0.2 nM) [2]: 0.551 nM
Kd [6]: < 0.3 nM

B17: 92E5 (antibody, human IgG2, kappa, V domains shown)
VH: EVHLLESGGGLVQPGGSLRLSCAASGFTFSSYAMSWVRQVPGKGLEWVSGISGRGGSTYYADSVKGRFTISRDNSKNTLYLQMDSLRAEDTAVYNCAIEVAGAFDIWGQGTMVTVSS
VL: DIQMIQSPSSLSASVGDRVTITCRASQSISHYLNWYQQKPGKAPKFLIYAASSLQSGVPSRFSGSGSGTDFTLTISSLQPEDFATYYCQQSFSSITFGQGTRLEIKR
notes: also called iPS 427559
binding result [1]: binds

B18: 89H9 (antibody, human IgG2, kappa, V domains shown)
VH: B17 VH with V40A, R54G, D84N, D90N, N95Y, V100M
VL: B17 VL with R18S, H31Y, F92Y
notes: also called iPS 427509
binding result [1]: binds

B19: 91G8 (antibody, human IgG2, kappa, V domains shown)
VH: B17 VH with H3Q, A23V, V40A, R54S, T58R, D84N, N95Y
VL: B17 VL with H31S, S94T
notes: also called iPS 427524
binding result [1]: binds

B20: 77D12 (antibody, human IgG2, lambda, V domains shown)
VH: QVQLVQSGAEVKKPGASVRVSCKASGYTFTGFYMHWVRQAPGQGLEWMGWINPDSGGTNYAQKFQGRVTMTRDTSISTAYMELSRLRSDDTAVYYCAREGIAVALTYWGQGTLVTVSS
VL: QSVLTQPPSASGTPGQRVTISCSESNSDIGTNAVNWYQQFPGTAPKFLIYSNNKRPSGVPDRFSGSKSGTSASLAISGLQSEDEADYYCATWDDNLNGPLFGGGTKLTVLG
notes: also called iPS 427549
binding result [1]: binds

B21: 54E5 (antibody, human IgG2, kappa, V domains shown)
VH: QVQLVESGGGVVQPGRSLRLSCAASGFTFSTYGMHWVRQAPGKGLEWVAVIWYDGSNKDYADSVKGRFTVSRDNSRDTLYLQMNSLRAEDTAVYYCAREERDSYYHYGMDVWGQGTTVTVSS
VL: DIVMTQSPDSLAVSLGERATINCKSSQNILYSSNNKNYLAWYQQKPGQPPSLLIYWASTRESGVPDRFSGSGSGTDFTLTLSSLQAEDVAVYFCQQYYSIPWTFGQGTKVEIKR
notes: also called iPS 427576
binding result [1]: binds

B22: 56E1 (antibody, human IgG2, kappa, V domains shown)
VH: B21 VH with T28I, T31S
VL: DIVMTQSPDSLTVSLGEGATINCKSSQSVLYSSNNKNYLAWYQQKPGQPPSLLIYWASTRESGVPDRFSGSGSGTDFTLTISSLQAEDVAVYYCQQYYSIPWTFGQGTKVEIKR
notes: also called iPS 427554
binding result [1]: binds

B23: 91D7 (antibody, human IgG2, kappa, V domains shown)
VH: QVQLQQWGAGLLKPSETLSLTCAVYGGSFSGYYWSWIRQPPGKGLEWIGEINPVGRTNYKPSLKSRVTISVDTSKNQFSLKLSSVTAADTALYYCARDNGWHYAFDIWGQGTMVTVSS
VL: DIQMTQSPSSLSASVGDRVTITCRASQNISSYLNWYQQRPGKAPNLLLFTASSLQSGVPSRFSGSGSGTDFTLTINSLQPEDFATYYCQQSYSNPPESSFGQGTKLEIKR
notes: also called iPS 427514
binding result [1]: binds

B24: 87H11 (antibody, human IgG2, kappa, V domains shown)
VH: B23 VH with V2E, P53H, V54S, K60N, L92V, N99S, Y103F, A104S, G109D
VL: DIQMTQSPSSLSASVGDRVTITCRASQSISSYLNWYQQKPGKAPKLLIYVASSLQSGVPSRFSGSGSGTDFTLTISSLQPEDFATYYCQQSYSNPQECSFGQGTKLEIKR
notes: also called iPS 427534
binding result [1]: binds
